This note sets out measurements from publication doi:10.1101/2024.05.23.595592 (bioRxiv, 2024).

First the molecules themselves.
T1: TREM2 R47H, biotinylated (human, UniProt Q9NZC2, R47H, biotin on the C-terminal BirA biotinylation sequence (enzymatic, BirA))
T1 sequence: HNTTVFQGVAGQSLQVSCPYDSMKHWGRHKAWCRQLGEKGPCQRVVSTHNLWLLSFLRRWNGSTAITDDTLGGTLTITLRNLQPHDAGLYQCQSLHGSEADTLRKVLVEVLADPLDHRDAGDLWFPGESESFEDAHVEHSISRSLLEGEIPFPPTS

T2: TREM2 R62H, biotinylated (human, UniProt Q9NZC2, R62H, biotin on the C-terminal BirA biotinylation sequence (enzymatic, BirA))
T2 sequence: T1 sequence with H29R, R44H

B1: Human IL-34 (19-241) (ligand)
chain: LGNEPLEMWPLTQNEECTVTGFLRDKLQYRSRLQYMKHYFPINYKISVPYEGVFRIANVTRLQRAQVSERELRYLWVLVSLSATESVQDVLLEGHPSWKYLQEVETLLLNVQQGLTDVEVSPKVESVLSLLNAPGPNLKLVRPKALLDNCFRVMELLYCSCCKQSSVLNWQDCEVPSPQSCSPEPSLQYAATQLYPPPPWSPSSPPHSTGSVRPVRAQGEGLL
B2: TREM2 WT, biotinylated (receptor)
chain: T1 sequence with H29R
modifications: biotin on the C-terminal BirA biotinylation sequence (enzymatic, BirA)

Common to all, as to assay: BLI
On the technique in general: Biolayer interferometry detects binding as a change in optical thickness at a sensor tip.

One test has as its target T1, TREM2 R47H, biotinylated.
The target of the next test is T2, TREM2 R62H, biotinylated.
Test [1] concerns the target oligomeric amyloid beta 42 (UniProt P05067).
The test “Human IL-34 (19-241)” addresses B1.

A word on the Kd: it is the equilibrium constant for the complex coming apart. A low value points to tighter binding.

Positions count from the first letter of the chain named.

Turning to B1, the “fold decrease in KD (affinity) against TREM2 WT” value was roughly 4 fold in the test with TREM2 R47H, biotinylated and roughly 4 fold with TREM2 R62H, biotinylated.

Take B2: the results for the Kd (in test [1]; with Human IL-34 (19-241)) were 42.5 nM and 16.5 nM, respectively.
